Six molecules from patent publication US20120014941A1 (Hoffmann-La Roche, published 2012) can be followed below.

Read-outs that look alike come from different tables or passages of the source.

The target of assay [1] is Cynomologus Monkey Bv8 (Genentech; PUR21590) (cynomolgus monkey). The experiment in a line: SPR (BIAcore 3000, 25 C): cynomolgus monkey Bv8 coupled to CM5 chip, IgG injected; 1:1 Langmuir fit. In general terms: In SPR one partner is held on a chip, and binding of the other changes the refractive index at the surface.
Assay [2] addresses T1, recombinant human Bv8 (PeproTech) (human, UniProt Q9HC23-2 28-108, biotinylated (Sulfo-NHS-LC-biotin) in the two competition ELISAs with coated antibody).
T1 construct: Bought protein; also called HuBv8; prokineticin-2
T1 sequence (looked up): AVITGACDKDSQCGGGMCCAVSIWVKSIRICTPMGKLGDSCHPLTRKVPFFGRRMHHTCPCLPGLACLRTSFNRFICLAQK
The experiment in a line: SPR (BIAcore 3000, 25 C): human Bv8 coupled to CM5 chip, IgG injected; 1:1 Langmuir fit. The text has this: (§1) For binding affinity determinations of anti-Bv8 antibodies (Fab or IgG), Surface Plasmon Resonance (SRP) measurement with a BIAcore™-3000 instrument was used. Briefly, CM5 biosensor chip was activated with EDC and NHS reagents according to the supplier's instructions, and human Bv8 (PeproTech) or Cynomologus Monkey (Genentech; PUR21590) was coupled to achieve approximately 150 response units (RU), then following by blocking un-reacted groups with 1M ethanolamine. For kinetics measurements, two-fold serial dilutions of anti-Bv8 Fabs (0.19 nM to 25 nM) or IgGs (0.019 nM to 10 nM) were injected in HBS-P buffer (0.01M HEPES pH 7.4, 0.15M NaCl, 0.005% surfactant P20) at 25° C. with a flow rate of 30 μl/min. Association rates (kₒₙ) and dissociation rates (koff) were calculated using a simple one-to-one Langmuir binding model (BIAcore Evaluation Software version 3.2). The equilibrium dissociation constant (Kd) was calculated as the ratio koff/kₒₙ.

Assay [3] concerns the target T1, recombinant human Bv8 (PeproTech). The experiment in a line: competitive ELISA: antibody in serial dilution mixed with biotinylated human Bv8 (57 pM) and put on plate coated with mouse 2G9 IgG1 (m5, the competitor); streptavidin-HRP, OD 450/620; four-parameter fit. Here is the method:
Maxisorp 384 well plates were coated with 1 μg/ml parent mouse 2G9 IgG1 antibody at 25 μl/well in 50 mM sodium carbonate buffer, pH 9.6, at 4° C. overnight. Plates were washed with phosphate buffered saline (PBS) containing 0.05% polysorbate, pH 7.4 and blocked with PBS containing 0.5% BSA, 10 ppm Proclin, pH 7.4, at 80 μL1/well. After one-hour incubation at room temperature, plates were washed. A mixture of serially diluted humanized 2G9 antibodies (0.11 pM-180 nM) in PBS containing 0.5% BSA, 0.05% polysorbate 20, pH 7.4 and biotinylated human Bv8 (final concentration 0.5 ng/ml or 57 pM) were added at 25 μL1/well. After two hour incubation, plates were washed and horseradish peroxidase conjugated streptavidin (GE Healthcare) was added. After a final 30 minute incubation, plates were washed and the substrate 3,3′,5,5′-tetramethyl benzidine (Kirkegaard & Perry Laboratories) was added. The reaction was stopped by adding 1 M phosphoric acid and absorbance was read at 450 nm on a Multiskan Ascent reader (Thermo Scientific, Hudson, N.H.). For data analysis, the titration curves were fitted using a four-parameter nonlinear regression curve-fitting program and the IC₅₀ concentrations were determined (KaleidaGraph, Synergy Software, Reading, Pa.).

Assay [4] addresses Cynomologus Monkey Bv8 (Genentech; PUR21590) (cynomolgus monkey). The experiment in a line: SPR (BIAcore 3000, 25 C): cynomolgus monkey Bv8 coupled to CM5 chip, Fab injected; 1:1 Langmuir fit.
Assay [5] addresses T1, recombinant human Bv8 (PeproTech). The experiment in a line: SPR (BIAcore 3000, 25 C): human Bv8 coupled to CM5 chip, Fab injected; 1:1 Langmuir fit.
From the text: as §1

Assay [6] shares this target. The experiment in a line: SPR (BIAcore 3000, 25 C): human Bv8 coupled to CM5 chip, Fab injected; 1:1 Langmuir fit; N=3.
From the text: as §1

Assay [7] has the same target. The experiment in a line: phage competition ELISA: Fab-displaying phage preincubated with serially diluted soluble human Bv8 (the concentration on the axis), unbound phage captured on plate-coated human Bv8, anti-M13-HRP; bound phage in %. On the procedure:
(§2) MAXISORP™ microtiter plates were coated with recombinant human Bv8 (PeproTech) at 2 μg/ml in PBS overnight and then blocked with PBST buffer (0.5% BSA and 0.05% Tween 20 in PBS) for an hour at room temperature (RT). Phage from culture supernatants were incubated with serially diluted human Bv8 in PBST buffer in a tissue-culture microtiter plate for an hour at RT, after which 80 μl of the mixture was transferred to the target-coated wells for 15 minutes to capture unbound phage. The plate was washed with PBT buffer (0.05% Tween 20 in PBS), and HRP-conjugated anti-M13 (Amersham Pharmacia Biotech) was added (1:5000 in PBST buffer) for 40 minutes. The plate was washed with PBT buffer and developed by adding tetramethylbenzidine substrate (Kirkegaard and Perry Laboratories, Gaithersburg, Md.). The absorbance at 450 nm was plotted as a function of target concentration in solution to determine phage IC₅₀.

Assay [8] has the same target. The assay is described as above. Here is the method:
as §2
The source holds these as a separate data set.

B1: h2G9.K4G1.Polish IgG (antibody, V domains shown)
VH: EVQLVQSGAEVKKPGASVKVSCKASGYSFTDYDMHWVRQAPGQGLEWIGYISSYSGATTYNQKFKGRVTITVDKSTSTAYLELSSLRSEDTAVYYCARDSNYGEAYAMDYWGQGTLVTVSS
VL: DIVMTQSPDSLAVSLGERATINCKASQSVDYSGDSYMNWYQQKPGQPPKLLIYAASNLESGVPDRFSGSGSGTDFTLTISSLQAEDVAVYYCQQINEDPFTFGQGTKVEIK
notes: IgG; constant regions not described for the humanized antibodies; also called parental polished K4G1 molecule
Broadly, the Kd is the constant that tells how readily two partners part at equilibrium. A word on the koff: it is the first-order rate constant of dissociation. Broadly, the kon is the rate constant with which the complex forms. Broadly, the IC50 is the midpoint of a concentration-inhibition curve. With B1, in assay [1], the Kd came to 0.03 nM, the off-rate (koff) was found to be 1.5e-05 s⁻¹ and the kon was 454000 M⁻¹ s⁻¹. Besides, in assay [2], the Kd amounted to 0.02 nM, the koff was 1.2e-05 s⁻¹ and the on-rate (kon) is 528000 M⁻¹ s⁻¹. Also, in assay [3], the half-inhibitory concentration (IC50) amounted to 0.084 nM.

B2: h2G9.K4G1.v55 Fab (Fab, V domains shown)
VH: EVQLVQSGAEVKKPGASVKVSCKASGYSFTDYDMHWVRQAPGQGLEWIGYISSYSGATTYNQKFKGRVTITVDKSTSTAYLELSSLRSEDTAVYYCARDSNYGEAYAMDYWGQGTLVTVSS
VL: DIVMTQSPDSLAVSLGERATINCKASQSLDYYHYSYMNWYQQKPGQPPKLLIYAASNRESGVPDRFSGSGSGTDFTLTISSLQAEDVAVYYCQQINEDPFTFGQGTKVEIKR
notes: Variable domains only; claims 8 and 9)
Take B2: the Kd in assay [4] is 0.42 nM; in assay [5] it was 0.18 nM; in assay [6] it was 0.28 nM. In addition, the koff in assay [4] was determined as 0.000129 s⁻¹; in assay [5] it was 7.2e-05 s⁻¹; in assay [6], 0.000136 s⁻¹. Besides, the results for the kon in assay [4], in assay [5] and in assay [6] were 310000 M⁻¹ s⁻¹, 396000 M⁻¹ s⁻¹ and 484000 M⁻¹ s⁻¹, respectively. Further, in assay [7], the “IC50 (read off the curve)” value is approximately 0.06 nM.

B3: h2G9.K4G1 (antibody, V domains shown)
VH: EVQLVQSGAEVKKPGASVKVSCKASGYSFTDYDMHWVRQAPGQGLEWIGYISCYNGATTYNQKFKGRVTITVDKSTSTAYLELSSLRSEDTAVYYCARDGNYGEAYAMDYWGQGTLVTVSS
VL: DIVMTQSPDSLAVSLGERATINCKASQSVDYDGDSYMNWYQQKPGQPPKLLIYAASNLESGVPDRFSGSGSGTDFTLTISSLQAEDVAVYYCQQINEDPFTFGQGTKVEIK
notes: also called h2G9.K4G1 anti-Bv8 antibody
For B3, in assay [3], the half-maximal inhibitory concentration (IC50) was found to be 0.984 nM.

B4: h2G9.K4G1.Polish Fab (Fab, V domains shown)
VH: EVQLVQSGAEVKKPGASVKVSCKASGYSFTDYDMHWVRQAPGQGLEWIGYISSYSGATTYNQKFKGRVTITVDKSTSTAYLELSSLRSEDTAVYYCARDSNYGEAYAMDYWGQGTLVTVSS
VL: DIVMTQSPDSLAVSLGERATINCKASQSVDYSGDSYMNWYQQKPGQPPKLLIYAASNLESGVPDRFSGSGSGTDFTLTISSLQAEDVAVYYCQQINEDPFTFGQGTKVEIK
notes: also called polished K4G1
Turning to B4, in assay [6], the Kd turned out to be 1.44 nM, the koff was found to be 0.000689 s⁻¹ and the on-rate (kon) came out at 475000 M⁻¹ s⁻¹. In assay [8], the “IC50 (read off the curve)” value is approximately 0.2 nM. The “IC50 (read off the curve)” value in assay [7] is approximately 0.2 nM.

B5: h2G9.K4G1.v19 Fab (Fab, V domains shown)
VH: EVQLVQSGAEVKKPGASVKVSCKASGYSLTNYDMHWVRQAPGQGLEWIGYIHSYSGSTLYNQKFKGRVTITVDKSTSTAYLELSSLRSEDTAVYYCARDSNYGEAYAMDYWGQGTLVTVSS
VL: DIVMTQSPDSLAVSLGERATINCKASQSVDYSGDSYMNWYQQKPGQPPKLLIYAASNLESGVPDRFSGSGSGTDFTLTISSLQAEDVAVYYCQQINEDPFTFGQGTKVEIKR
notes: Variable domains only; claims 6 and 7)
On to B5, for which the equilibrium dissociation constant (Kd) was 0.1 nM in assay [4], 0.04 nM in assay [5] and 0.08 nM in assay [6]. The koff was found to be 2.8e-05 s⁻¹ in assay [4], 1.6e-05 s⁻¹ in assay [5] and 3.8e-05 s⁻¹ in assay [6]. For the same molecule, the kon in assay [4] was found to be 267000 M⁻¹ s⁻¹; in assay [5] it was 359000 M⁻¹ s⁻¹; in assay [6], 471000 M⁻¹ s⁻¹. The “IC50 (read off the curve)” value in assay [8] is approximately 0.09 nM.

B6: h2G9.K4G1 variant CDR-L1 G29S (Fab, V domains shown)
VH: EVQLVQSGAEVKKPGASVKVSCKASGYSFTDYDMHWVRQAPGQGLEWIGYISCYNGATTYNQKFKGRVTITVDKSTSTAYLELSSLRSEDTAVYYCARDGNYGEAYAMDYWGQGTLVTVSS
VL: DIVMTQSPDSLAVSLGERATINCKASQSVDYDSDSYMNWYQQKPGQPPKLLIYAASNLESGVPDRFSGSGSGTDFTLTISSLQAEDVAVYYCQQINEDPFTFGQGTKVEIK
Consider B6, for which the “IC50 (read off the curve)” value in assay [7] was approximately 1 nM.
